Reference: patent US20260241049A1, “Radiopharmaceutical Compositions Targeting Glypican-3 and Uses Thereof” (RayzeBio, Inc., priority 2023, published 2026)
Starred links: 1 amine or outer side, 2 acyl side, 3 side chain; linkers in the order of their positions; H or OH if unused. Positions of bridges follow the written chain, without caps; N, C: chain ends. Non-standard residues stand in square brackets, D forms with d. Primed or numbered codes have the meaning given here. *: point of attachment. MeKCOpipzaa″ = (2S)-6-{[4-(carboxymethyl)piperazine-1-carbonyl]amino}-2-(methylamino)hexanoic acid, CN([C@@H](CCCCNC(=O)N1CCN(CC(=O)[*:3])CC1)C(=O)[*:2])[*:1]; DOTA‑Lu = DOTA-lutetium(175) amide on the side-chain amine, O=C([O-])CN1CCN(CC(=O)[O-])CCN(CC(=O)*)CCN(CC(=O)[O-])CC1.[175Lu+3]; F4aao(4) = 4-(carboxymethoxy)phenylalanine, O=C([C@H](Cc1ccc(OCC(=O)[*:3])cc1)N[*:1])[*:2]; MeHseMe(5) = N-methyl-O-methyl-homoserine, COCC[C@@H](C(=O)[*:2])N(C)[*:1]; MeHseMe = N-methyl-O-methyl-L-homoserine, COCC[C@@H](C(=O)[*:2])N(C)[*:1]; Thr(Me)(3) = TMe, O-methyl-L-threonine, CO[C@H](C)[C@H](N[*:1])C(=O)[*:2]; TMe″ = O-methyl-threonine, CO[C@H](C)[C@H](N[*:1])C(=O)[*:2]; NMeAla(isoquinolin-7-yl) = CN[C@@H](Cc1ccc2ccncc2c1)C(=O)O; 3Pal(6-Ph) = N[C@@H](Cc1ccc(-c2ccccc2)nc1)C(=O)O; Phe(4-COOH) = N[C@@H](Cc1ccc(C(=O)O)cc1)C(=O)O; NMeI = CC[C@H](C)[C@H](NC)C(=O)O; NMeQ = CN[C@@H](CCC(N)=O)C(=O)O; NMeK = CN[C@@H](CCCCN)C(=O)O; NMeC = CN[C@@H](CS)C(=O)O

B1: Macrocyclic peptide of Example 2-4 (SEQ ID No. 7) (peptide)
peptide: {CH2CO}-[NMeK](Ac)[NMeI]D[NMeQ][Phe(4-COOH)]IIY[NMeAla(isoquinolin-7-yl)]G[3Pal(6-Ph)][NMeC]-NH2
modifications: thioether N-12
SMILES: CC[C@H](C)[C@@H]1NC(=O)[C@H](Cc2ccc(C(=O)O)cc2)NC(=O)[C@H](CCC(N)=O)N(C)C(=O)[C@H](CC(=O)O)NC(=O)[C@H]([C@@H](C)CC)N(C)C(=O)[C@H](CCCCNC(C)=O)N(C)C(=O)CSC[C@@H](C(N)=O)N(C)C(=O)[C@H](Cc2ccc(-c3ccccc3)nc2)NC(=O)CNC(=O)[C@H](Cc2ccc3ccncc3c2)N(C)C(=O)[C@H](Cc2ccc(O)cc2)NC(=O)[C@H]([C@@H](C)CC)NC1=O
B2: Macrocyclic peptide of Example 2-24 (SEQ ID No. 58) (peptide)
peptide: {CH2CO}-[MeKCOpipzaa″][MeHseMe]D[NMeQ][Phe(4-COOH)][Thr(Me)(3)]IY[NMeAla(isoquinolin-7-yl)]G[3Pal(6-Ph)][NMeC]-NH2
modifications: thioether N-12
SMILES: CC[C@H](C)[C@@H]1NC(=O)[C@H]([C@@H](C)OC)NC(=O)[C@H](Cc2ccc(C(=O)O)cc2)NC(=O)[C@H](CCC(N)=O)N(C)C(=O)[C@H](CC(=O)O)NC(=O)[C@H](CCOC)N(C)C(=O)[C@H](CCCCNC(=O)N2CCN(CC(=O)O)CC2)N(C)C(=O)CSC[C@@H](C(N)=O)N(C)C(=O)[C@H](Cc2ccc(-c3ccccc3)nc2)NC(=O)CNC(=O)[C@H](Cc2ccc3ccncc3c2)N(C)C(=O)[C@H](Cc2ccc(O)cc2)NC1=O
B3: Macrocyclic peptide of Example 2-27 (SEQ ID No. 35) (peptide)
peptide: KQDQFTIFFGXC
modifications: MeK-MeQ-D-MeQ-F4COO-TMe-I-F4aao-MeNal27N-G-3Py6Ph-MeC-NH2; thioether ring from N-terminal acetyl to MeC12
B4: Macrocyclic peptide of Example 2-57 (SEQ ID No. 1) (peptide)
peptide: {CH2CO}-[NMeK][NMeI]D[NMeQ][Phe(4-COOH)]IIY[NMeAla(isoquinolin-7-yl)]G[3Pal(6-Ph)][NMeC]-NH2
modifications: thioether N-12
SMILES: CC[C@H](C)[C@@H]1NC(=O)[C@H](Cc2ccc(C(=O)O)cc2)NC(=O)[C@H](CCC(N)=O)N(C)C(=O)[C@H](CC(=O)O)NC(=O)[C@H]([C@@H](C)CC)N(C)C(=O)[C@H](CCCCN)N(C)C(=O)CSC[C@@H](C(N)=O)N(C)C(=O)[C@H](Cc2ccc(-c3ccccc3)nc2)NC(=O)CNC(=O)[C@H](Cc2ccc3ccncc3c2)N(C)C(=O)[C@H](Cc2ccc(O)cc2)NC(=O)[C@H]([C@@H](C)CC)NC1=O

Target: T1, Human Glypican3-Fc (ACRO Biosystems, GP3-H5258) (human, UniProt P51654 25-559)
T1 construct: Bought fusion protein, captured in Methods B-2, B-3 and B-4; Catalogue number is printed only in Method B-2; not shown: Fc part of the bought fusion
Assay: SPR (Biacore T200), Method B-3: Glypican3-Fc captured on Protein A chip, peptide as analyte
Method: A Protein A sensor chip (Cytiva) was inserted into a Biacore T200 (Cytiva), priming was performed three times with a running buffer: HBS-P+, pH 7.4 (Cytiva), and equilibration was carried out at a flow rate of 30 μL/min. Glypican3-Fc was allowed to react for 60 seconds at a flow rate of 10 μL/min. After capturing human Glypican3-Fe, a peptide solution prepared to 10 mM in DMSO solution was diluted with a running buffer to a final concentration of 10 μM. […] Using the above samples, peptide kinetics for Glypican3 was obtained by SPR measurement. Kinetics evaluation of Glypican3 was performed by SPR measurements at a flow rate of 10 LL/min, setting the association time to 120 seconds and the disassociation time to 600 seconds.
The obtained data by Method B-1, Method B-2, Method B-3 and Method B-4 were analyzed by follow. Single Cycle Kinetics was used as the kinetics evaluation model, and curve fitting was performed using Biacore T200 Evaluation Software Version 3.0 (Cytiva).

Row | Binder | Kd [pM]
1 | Ac-[NMeK](DOTA‑Lu)[NMeI]D[NMeQ][Phe(4-COOH)][TMe″]IY[NMeAla(isoquinolin-7-yl)]G[3Pal(6-Ph)][NMeC]-NH2 (bridge N-12; not fully specified (bridges); also: DOTA-Lu: cold Lu-175 complex) [Lu-C-62] | 150
2 | Ac-[NMeK](DOTA‑Lu)[NMeI]D[NMeQ][Phe(4-COOH)]II[F4aao(4)][NMeAla(isoquinolin-7-yl)]G[3Pal(6-Ph)][NMeC]-NH2 (bridge N-12; not fully specified (bridges); also: DOTA-Lu: cold Lu-175 complex) [Lu-C-64] | 530
3 | Ac-[NMeK](DOTA‑Lu)[MeHseMe(5)]D[NMeQ][Phe(4-COOH)]IIY[NMeAla(isoquinolin-7-yl)]G[3Pal(6-Ph)][NMeC]-NH2 (bridge N-12; not fully specified (bridges); also: cold Lu-175 chelated by DOTA) [Lu-C-72] | 360
4 | B1 | 300
5 | B2 | 500
6 | B3 | 1100
7 | B4 | 170
